Reference: patent US8409833B2 (Hokko Chemical Industry Co., Ltd., priority 2003, dated 2013)
Entries after “also recorded” stand apart in the source; their conditions may differ.

Tests used:
Format in all cases: biochemical
[1] = Effects of heavy metal on scyllo-inositol dehydrogenase; conditions: 2 mM heavy metal in reaction solution; no addition group = 100%
Description: Effects by the heavy metals can be confirmed by: mixing 5 μl of a reaction solution (200 mM Tris buffer of pH 8.0 containing 2% of NADPH, 1% of scyllo-inosose, and 2 mM metal salt) and 5 μl of an enzyme solution; allowing the mixture to react at 36° C. for 30 minutes; adding 500 μl of water immediately after the completion of the reaction; determining the absorbance at 340 nm; and determining a decrease in the absorbance at 340 nm with respect to a blank value of a test solution containing water instead of the enzyme solution. The term “activated” means the case where the enzymatic activity of a fraction added with 1 mM of a heavy metal is 105% or more, preferably 120% or more, with respect to the enzymatic activity of a fraction added with no heavy metal as 100%. On the other hand, the term “inhibited” means the case where the enzymatic activity of the fraction added with 1 mM of a heavy metal is 95% or less, preferably 70% or less, with respect to the enzymatic activity of the fraction added with no heavy metal as 100%.
The effects of heavy metal on the enzymes of the present invention were determined by: mixing 5 μl of a reaction solution (200 mM Tris buffer (pH 8.0), 2% of NADPH, 1% of scyllo-inosose, and 2 mM of a heavy metal) with 5 μl of an enzyme solution; and allowing the mixture to react at 36° C. for 30 min. After the reaction, 500 μl of water was immediately added thereto, and the absorbance at 340 nm was measured. From the blank value of a test solution prepared by using water instead of the enzyme solution, the decrease in the absorbance at 340 nm was measured. The enzyme solution was diluted as required. CaCl2, CoCl2, ZnSO4, MgSO4, SnCl2, NiCl2, and MnSO4 were used as metallic salts. The activity of the no addition group was defined as 100%, and the relative activities were compared. […] Most of the enzymes were inhibited in the presence of Zn^2+ ion, in contrast, the enzyme derived from Bacillus subtilis 168 was activated in the presence of Zn^2+ ion.

[2] = Enzyme reaction product of scyllo-inosose reduction measured by HPLC; conditions: for share of scyllo-inositol in the product of scyllo-inosose reduction: 10 mg scyllo-inosose, 40 mg NADPH, 10 U enzyme, 36° C., 4 hours, myo-inositol not detected; for Reduction reaction product: SIS: scyllo-inosose, SI: scyllo-inositol
Description: Meanwhile, the enzyme reaction product was measured as follows: 10 mg of scyllo-inosose, 40 mg of NADPH, and 10 U of the enzyme were allowed to react in 1.0 ml of 100 mM Tris buffer (pH 8.0) at 36° C. for 4 hours, and a heat treatment was performed at 80° C. for 10 min, followed by cooling. Then, 100 μl of a strong base cation exchange resin, 100 μl of a strong acid anion exchange resin, and 10 mg of activated carbon were added, and the mixture was stirred and centrifuged. Then, the supernatant was diluted 2-fold, and measurement was performed by HPLC (Shodex Asahipak NH2P-50 4E Φ 4.6×250 mm: Shodex) using an RI detector under the condition of a column temperature of 40° C. and a mobile phase flow rate of 1.5 ml (80% acetonitrile). […] Meanwhile, the sequence of the ydgJ gene is shown in SEQ ID NO: 1, and the amino acid sequence corresponding thereto is shown in SEQ ID NO: 2.
Meanwhile, enzyme reaction product was measured as follows: 10 mg of scyllo-inosose, 40 mg of NADPH, and 10 U of the enzyme were allowed to react in 1.0 ml of 100 mM Tris buffer (pH 8.0) at 36° C. for 4 hours, and a heat treatment was performed at 80° C. for 10 min, followed by cooling. Then, 100 μl of a strong base cation exchange resin, 100 μl of a strong acid anion exchange resin, and 10 mg of activated carbon were added, and the mixture was stirred and centrifuged. Then, the supernatant was diluted 2-fold, and measurement was performed by HPLC (Shodex Asahipak NH2P-50 4E Φ 4.6×250 mm: Shodex) using an RI detector under conditions of a column temperature of 40° C. and a mobile phase flow rate of 1.5 ml (80% acetonitrile).

[3] = Km values of scyllo-inositol dehydrogenase for scyllo-inosose (reciprocal plot); conditions: NADPH, pH 8.0, 36° C.
Description: The determination is carried out such that the Km value is calculated after reciprocal plot according to the general method.
After the reaction, […] of water was immediately added thereto, and the absorbance at 340 nm was measured. From the blank value of a test solution prepared by using water instead of the enzyme solution, the decrease in the absorbance at 340 nm was measured. The enzyme solution was diluted as required. The Km values were calculated by the reciprocal plot.

[4] = Optimum pH of scyllo-inositol dehydrogenase; conditions: 200 mM phosphate buffer (pH 5.0 to 9.0); 90% or more of the maximum activity
Description: The optimum pH can be confirmed by: mixing 5 μl of a reaction solution (200 mM […] of pH 5.0 to 9.0 containing 2% of NADPH, and 1% of scyllo-inosose) and 5 μl of an enzyme solution; allowing the mixture to react at 36° C. for 30 minutes; adding 500 μl of water immediately after the completion of the reaction; determining the absorbance at 340 nm; and determining a decrease in the absorbance at 340 nm with respect to a blank value of a test solution containing water instead of the enzyme solution. The term “optimum pH” means a pH at which the enzyme has 90% or more of the maximum activity. The enzyme of the present invention can be divided depending on, for example, a range of the optimum pH into groups each having: an optimum pH in an acidic region (optimum pH is pH of 5.5 to 6.5); an optimum pH in a neutral region (optimum pH is pH of 6.5 to 7.5 or 6.5 to 8.5); and an optimum pH in an alkaline region (optimum pH is pH of 7.0 to 8.5 or 7.5 to 9.0).
The optimum pH of the enzymes of the present invention was determined by: mixing 5 μl of a reaction solution (200 mM phosphate buffer (pH 5.0 to 9.0), 2% of NADPH, and 1% of scyllo-inosose) with 5 μl of an enzyme solution; and allowing the mixture to react at 36° C. for 30 min. After the reaction, 500 μl of water was immediately added thereto, and the absorbance at 340 nm was measured. From the blank value of a test solution prepared by using water instead of the enzyme solution, the decrease in the absorbance at 340 nm was measured. The enzyme solution was diluted as required.

[5] = Substrate specificity of scyllo-inositol dehydrogenase (relative activity of oxidation, absorbance at 545 nm); conditions: relative to reactivity to scyllo-inositol, NADP^+, pH 8.0, 25° C.
Description: Examples of an inositol isomer include scyllo-inositol (SI), myo-inositol (MI), D-chiro-inositol (DCI), L-chiro-inositol (LCI), epi-inositol (EI), muco-inositol (MuI), allo-inositol (AI), and neo-inositol (NI).
The inositol isomers include scyllo-inositol (SI), myo-inositol (MI), D-chiro-inositol (DCI), L-chiro-inositol (LCI), epi-inositol (EI), muco-inositol (MuI), allo-inositol (AI), and neo-inositol (NI).
The reaction rate was calculated from the absorbance increments at the respective times.

Molecule | Heavy metal effects: activation [1] | Heavy metal effects: strong inhibition [1] | share of scyllo-inositol in the product of scyllo-inosose reduction [2] [%] | Reduction reaction product [2] | Km [3] [mM] | Optimum pH [4] | Substrate specific Relative activity (20 to 70%) [5] | Substrate specific Relative activity (70% or more) [5] | Substrate specific Relative activity (less than 20%) [5]
AB10121 Atu3234 gene: recombinant scyllo-inositol dehydrogenase, Atu3234 gene product of Agrobacterium sp. AB10121 FERM P-17383, SEQ ID NO: 12 (protein, listed as Agrobacterium sp.) MAIEGKTTDKANKRIRLGMVGGGSGAFIGGVHRMAARLDNRFDLVAGALSSTPEKSLASGRELGLDPERCYGSFEEMAEKEALREDGIEAVAIVTPNHVHYPAAKAFLERGIHVICDKPLTSNLEDAKKLKDVADKADALFILTHNYTGYPMVRHARELVESGALGTIRLVQMEYPQDWLAEPIEQTGAKQAVWRTDPAQSGAGGSTGDIGTHAYNLGCFISGLEVDELAADVHTFVEGRRLDDNAHVMLRFKPKGGKQPAKGLLWCSQVAVGHENGLKVRVYGDKAGIEWTQADPNYLWFTKLGELKQLITRGGAGAGAAAARVTRIPSGHPEGYLEAFATIYTEAAHAIEARRTGSVLDKAVIYPTVDDGVKGVAFVTACIESGKKNGVWVKL | Co, Mn, Ca | Sn, Zn | 100 | Only SIS → SI | 3.1 | pH 7.0-8.5 | MuI | SI, MI, DCI, EI, and LCI | AI, NI
SIDH1: scyllo-inositol dehydrogenase purified from Acetobacter sp. AB10281, DEAE-unadsorbed fraction, SEQ ID NO: 28 (protein, listed as Acetobacter sp.) MTKRKLRIGLIGSGFMGRTHAFGYSTASRVFDLPFQPELTCLADISDEAAAKAADALGFARSTSDWRTLVNDPEIDVVNITAPNAFHKEMALAAIAAGKHVYCEKPLAPLAADAREMAEAAEAKGVKTQVGFNYLCNPMLALARDMIAAGELGEIRGYRGLHAEDYMADASSPFTFRLDPAGGGALADIGSHALATAEFLMGPAAGAITQVMGDCVTVIKTRPDGKGGTRAVEVDDIGRALLRFENGATGSVEGNWIATGRTMQHDFEVYGTKGALAFTQQRFNELHFFSSTDARGRKGFRRIEAGPEHAPYGLFCVAPGHQLGFNDLKAIEVARYLEALAGHHPEPFNFRAGLRIQTLVETIHASSKSAAWRDVPTDKVKLQAKSRQHEKA | Co | Sn, Zn | – | Only SIS → SI | 7.6 | pH 5.5-6.5 | – | – | DCI, LCI, EI,; also recorded: MuI, AI, NI
Xcc3438 gene: recombinant scyllo-inositol dehydrogenase, Xcc3438 gene product of Xanthomonas campestris pv. campestris ATCC33913, SEQ ID NO: 14 (protein, Xanthomonas campestris pv. campestris) MPKPFNLAVVGYGYVGRTFHAPLIASTPGLQLHSVVSSKPQQPQADFREVRVLPDLEAALADPALDAVVIATPNQTHAPMALQALAAGKHVLVDKPFALDAAQARTVVDAAAEAGKIVSVFQNRRWDADFLTVRRLIEDGQLGEVVEFHSHFDRYRPQVRDRWRESDIPGAGLWYDLGPHLLDQALQLFGMPQAISADLQRQRTQARSDDYFNVVLRYPRLRVILHAGSLVADGSLRFAVHGTRGSYLKHGADTQEDQLRAGRRPGTAGWGMDPLPGTLTRVDDEGRVHTHQPDGVPGDYRHCYAAFRDAMAGTAPPPVSAADAVRLMELLELAQRGAALGQVLWLEGNSSD | Co | Sn, Zn | 100 | Only SIS → SI | 9.1 | pH 6.5-7.5 | – | SI, DCI | EI, LCI, MuI,; also recorded: AI, NI
AB10121 Atu4375 gene: recombinant scyllo-inositol dehydrogenase, Atu4375 gene product of Agrobacterium sp. AB10121 FERM P-17383, SEQ ID NO: 10 (protein, listed as Agrobacterium sp.) MSSAPKKFDSRRIRLGMVGGGQGAFIGAVHRIAARLDDRYELVAGALSSDPARAAASATLLGIAPERSYASFEEMAAAEAGRDDGIEAVAIVTPNHLHFAPSKAFLEAGIHVICDKPVTATLEEAKALAEIVRASDSLFVLTHNYTGYAMLRQMRQMVADGAIGKLRHVQAEYAQDWLTEAVEKTGAKGAEWRTDPSRSGAGGAIGDIGTHAFNAAAFVTGEIPKSLYADLTSFVPGRQLDDSANILLRYESGAKGMLWASQIAVGNENALSLRVYGEKGGLEWHHRVPDELWFTPYGEPKRLITRNGAGAGAAANRVSRVPSGHPEGYLEGFATIYREAADAIIAKREGKAAAGEVIYPGMEDGLAGLAFIDAAVRSSQTSTWINIDI | Co, Mn | Sn, Zn | 100 | Only SIS → SI | 9.8 | pH 6.5-8.5 | LCI, MuI | SI, MI, DCI, EI | AI, NI
